{"source": "patent US20120213763A1", "about": "(COUNCIL OF SCIENTIFIC AND INDUSTRIAL RESEARCH, published 2012)", "proteins": {"B1": {"name": "human plasminogen (HPG) (protein)", "chain": "KVYLSECKTGNGKNYRGTMSKTKNGITCQKWSSTSPHRPRFSPATHPSEGLEENYCRNPDNDPQGPWCYTTDPEKRYDYCDILECEEECMHCSGENYDGKISKTMSGLECQAWDSQSPHAHGYIPSKFPNKNLKKNYCRNPDRELRPWCFTTDPNKRWELCDIPRCTTPPPSSGPTYQCLKGTGENYRGNVAVTVSGHTCQHWSAQTPHTHNRTPENFPCKNLDENYCRNPDGKRAPWCHTTNSQVRWEYCKIPSCDSSPVSTEQLAPTAPPELTPVVQDCYHGDGQSYRGTSSTTTTGKKCQSWSSMTPHRHQKTPENYPNAGLTMNYCRNPDADKGPWCFTTDPSVRWEYCNLKKCSGTEASVVAPPPVVLLPDVETPSEEDCMFGNGKGYRGKRATTVTGTPCQDWAAQEPHRHSIFTPETNPRAGLEKNYCRNPDGDVGGPWCYTTNPRKLYDYCDVPQCAAPSFDCGKPQVEPKKCPGRVVGGCVAHPHSWPWQVSLRTRFGMHFCGGTLISPEWVLTAAHCLEKSPRPSSYKVILGAHQEVNLEPHVQEIEVSRLFLEPTRKDIALLKLSSPAVITDKVIPACLPSPNYVVADRTECFITGWGETQGTFGAGLLKEAQLPVIENKVCNRYEFLNGRVQSTELCAGHLAGGTDSCQGDSGGPLVCFEKDKYILQGVTSWGLGCARPNKPGVYVRVSRFVTWIEGVMRNN"}}, "key": {"[1]": {"target": "T1, PEGylated SK L179C (SEQ ID NO 41)", "T1 chain": "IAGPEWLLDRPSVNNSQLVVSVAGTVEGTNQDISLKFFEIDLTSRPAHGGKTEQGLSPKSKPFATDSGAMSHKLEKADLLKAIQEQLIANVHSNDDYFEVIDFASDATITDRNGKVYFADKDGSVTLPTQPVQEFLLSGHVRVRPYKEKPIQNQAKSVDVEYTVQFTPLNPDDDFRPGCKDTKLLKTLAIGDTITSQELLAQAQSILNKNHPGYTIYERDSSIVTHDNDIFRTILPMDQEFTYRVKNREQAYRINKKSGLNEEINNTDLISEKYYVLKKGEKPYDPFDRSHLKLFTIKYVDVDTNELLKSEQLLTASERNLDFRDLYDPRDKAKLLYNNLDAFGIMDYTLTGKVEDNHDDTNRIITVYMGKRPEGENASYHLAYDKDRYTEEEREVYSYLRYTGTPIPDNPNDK"}, "[2]": {"target": "PEG Variants of SEQ ID NO 24 (PEGylated Cysteine variants of fibrin domain fusion form of SK)"}, "[3]": {"target": "T2, PEGylated SK Lys 257 Cys (SEQ ID NO 48)", "T2 chain": "T1 chain with C179L, K257C"}, "[4]": {"target": "T3, PEGylated SK Ser 258 Cys (SEQ ID NO 49)", "T3 chain": "T1 chain with C179L, S258C"}, "[5]": {"target": "T4, PEGylated SK N-Cys (SEQ ID NO 489), Cys at N - 1 position in SK", "T4 chain": "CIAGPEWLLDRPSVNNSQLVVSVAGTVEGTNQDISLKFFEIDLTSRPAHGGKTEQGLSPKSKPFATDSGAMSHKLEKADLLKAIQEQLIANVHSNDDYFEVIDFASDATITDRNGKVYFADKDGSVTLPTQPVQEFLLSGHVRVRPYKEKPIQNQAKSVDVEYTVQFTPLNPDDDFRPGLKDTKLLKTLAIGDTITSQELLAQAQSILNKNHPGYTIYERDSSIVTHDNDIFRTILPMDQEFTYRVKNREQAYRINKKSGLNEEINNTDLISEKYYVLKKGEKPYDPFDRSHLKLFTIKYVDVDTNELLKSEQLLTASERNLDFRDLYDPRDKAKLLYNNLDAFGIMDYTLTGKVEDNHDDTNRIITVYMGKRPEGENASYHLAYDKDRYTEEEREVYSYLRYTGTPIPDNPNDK"}, "[6]": {"target": "PEG Variants of SEQ ID NO 22 (PEGylated Cysteine variants of fibrin domain fusion form of SK)"}}, "note": "Where a chain is given by its changes, count along the chain named. Several values for one entry are separate records, joined by “and”; a condition that tells them apart may be missing. Equal entries are not always repeated."}
{"protein": "B1", "values": [{"measurement": "Km", "setting": "[1]", "result": 0.5, "unit": "µM"}, {"measurement": "Km", "setting": "[2]", "result": 0.48, "unit": "µM"}, {"measurement": "Km", "setting": "[3]", "result": 0.4, "unit": "µM"}, {"measurement": "Km", "setting": "[4]", "result": 0.5, "unit": "µM"}, {"measurement": "Km", "setting": "[5]", "result": 0.4, "unit": "µM"}, {"measurement": "Km", "setting": "[6]", "result": "0.25 µM and 0.6 µM"}]}
